Measurements: article PMC2705800, “Nucleocytoplasmic Shuttling of the TACC Protein Mia1p/Alp7p Is Required for Remodeling of Microtubule Arrays during the Cell Cycle” (PLoS ONE, 2009)

Biological target: T1, MBP-Mia1p-MutNES4 (S. pombe, UniProt Q9URY2 1-474, L461A (AVAAMDQANA; Leu/Ile residues 461, 463, 468 and 470) | I463A (AVAAMDQANA; …)
T1 construct: Cloned into the pAD2a vector (MBP upstream of the multiple cloning site), as m1; also called Mia1-MutNES4; NES mutant version of Mia1p; source: E. coli BL21 (DE3) carrying the pG-KJE8 chaperone plasmid; not shown: MBP, N-terminal, kept
T1 sequence (looked up): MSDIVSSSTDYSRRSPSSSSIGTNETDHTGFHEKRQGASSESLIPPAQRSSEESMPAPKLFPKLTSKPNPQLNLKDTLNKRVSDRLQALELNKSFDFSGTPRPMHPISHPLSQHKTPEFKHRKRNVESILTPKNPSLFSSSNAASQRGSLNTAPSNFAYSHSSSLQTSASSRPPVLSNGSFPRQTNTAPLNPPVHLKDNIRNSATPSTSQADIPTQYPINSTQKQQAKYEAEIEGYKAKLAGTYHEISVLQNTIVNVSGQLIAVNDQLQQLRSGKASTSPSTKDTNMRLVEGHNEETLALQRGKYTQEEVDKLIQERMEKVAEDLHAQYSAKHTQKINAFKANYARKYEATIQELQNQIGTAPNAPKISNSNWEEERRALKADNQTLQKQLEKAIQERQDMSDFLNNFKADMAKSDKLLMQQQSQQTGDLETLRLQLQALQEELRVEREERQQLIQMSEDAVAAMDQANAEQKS
Experiment: pull-down; MBP fusion held on amylose resin, incubated 1 hour at 4°C with soluble total lysate of Alp14p-13myc expressing mia1Δ S. pombe cells; Buffer A (20 mM Tris-HCl pH 7.4, 400 mM NaCl, 1 mM EDTA, 10 mM β-mercaptoethanol); washed 3 times; Alp14p-myc detected with anti-myc antibody, MBP proteins by Coomassie
Conditions: one partner purified

ratio of Alp14p-myc pulled down, against MBP-Mia1p: 0.26 ratio to MBP-Mia1p
B1: Alp14p-13myc (natural protein, S. pombe, UniProt O94534 1-809, looked up)
chain: MSQDQEEDYSKLPLESRIVHKVWKVRLSAYEECSKSFSLSADGSDNCFELWNNQSELWKSVLTDSNVAAQEAGTAAFVAYCRFSDPSHLLKAREISVLSISEKCLTSPRAGTRENALEALMLLVEADSAAPVIESIIPSLSARSPKVIASNVAAIASLVEQFGAKVIPSKMIIPHISNLFGHADKNVRKEASRLTVNIYRWTGDPLKDLLFKDLRPVQTKELESLFAELPTEPPKQTRFLKSQQPTSEPNVETQVEEQPALENEESEPEPSDDQFDLVEEVDVLPNVDPNLETLMASSKWKDRKEALDKLLPVLSQPKIKDNDFFNLVAILTKSVSKDANIMVVINAAHCIQAMAKGLRSNFSKYASTSINALLERSKEKKANVIESLSSAMDAVLATSSLDDLAELIASFAGNKNPQIKSSCFSLFSRSFSNMTSLPSKFTVDTCAKACVPGVSDTFEPVRSAAAEALGVLMKLVGERAINQYLSPLDDIRKSKIRSFYETATVKAKAPTKKSKVKPSKQEESKVVVPSNAKAVKKSVVPSSPVVPSPRKATNKSLSMDVSKGNAFENGPLLPRPTTRPVSRGLSRGTSSSLQQKVKASTPLNSGALNETVQNLKNMELDDPAPQPAKHSRVDRYEHPKVLEDNDSTISSLESLKRENEELREQLKVEHEENISMQKQLSELKGELNTLRSARKASPIGDRKPAFMRRANTDFLELSTSPSFQRSVREFEPTRPKLYSSIDVNQRSPLASAKTNGNFTFHAELPRSPFSSRANNINPDWTKAIDLAAKLKQKITEMKQTDQRHQGLIH
notes: Alp14p, TOG protein of Schizosaccharomyces pombe, partner of Mia1p/Alp7p; also called Alp14p-myc; Alp14p/TOG; source: S. pombe mia1Δ cells expressing Alp14p-13myc, total cell lysate
